The source of these data is PMC4323794.

Where two headings read alike, the source gives them in different places.

Experiment [1] addresses GpIbα‐Fc fusion protein. The experiment is described as follows: ELISA.
Experiment [2] addresses GpIbα‐Fc fusion protein. Nature of the experiment: SPR. On the technique in general: SPR reads the build-up and loss of mass on a sensor chip optically.
Experiment [3] concerns the target ΔD′D3‐VWF lacking the NFP (ΔD′D3NFP‾‐VWF) (human) (UniProt P04275). Nature of the experiment: ELISA. (ELISA stands for enzyme-linked immunosorbent assay.)
The target of experiment [4] is ΔD′D3‐VWF with Ala mutations replacing Thr/Ser (ΔD′D3OG‾‐VWF) (human) (UniProt P04275). Nature of the experiment: ELISA.
In experiment [5] the target is Dimeric full‐length VWF (ΔPro‐VWF) (human) (UniProt P04275). Nature of the experiment: ELISA.
Experiment [6] concerns the target ΔD′D3‐VWF lacking the NFP (ΔD′D3NFP‾‐VWF) (human) (UniProt P04275). Nature of the experiment: ELISA. The source holds these as a separate data set.

In the experiment with GpIbα‐Fc fusion protein [1], “Dimeric full‐length VWF (ΔPro‐VWF) (from UniProt P04275 764-2813) (natural protein)” returned a Kd of 102 nM.

The substance “ΔD′D3‐VWF lacking the NFP (ΔD′D3NFP‾‐VWF) (from UniProt P04275 1267-2813) (domain or fragment)” yielded a Kd in the experiment with GpIbα‐Fc fusion protein [1] of 0.7 nM.

In turn, “VWF‐A1 (monomeric A1 domain with the N‐terminal flanking peptide) (from UniProt P04275 1243-1480) (domain or fragment)” registered a Kd in the experiment with GpIbα‐Fc fusion protein [2] of 1200 nM.

In the experiment with GpIbα‐Fc fusion protein [1], “ΔD′D3‐VWF with Ala mutations replacing Thr/Ser (ΔD′D3OG‾‐VWF) (from UniProt P04275 1243-2813) (domain or fragment)” gave a dissociation constant Kd of 2.4 nM.

Turning to GpIbα‐Fc fusion protein, the Kd came out at 7.5 nM in experiment [3], 5 nM in experiment [4], 15 nM in experiment [5] and 7 nM in experiment [6].

“D′D3‐A1 (from UniProt P04275 764-1480) (domain or fragment)”: the Kd with GpIbα‐Fc fusion protein [2] came to 1700 nM. This lies in the single-digit micromolar range.

Usually Kd stands for a measure of binding affinity in units of concentration. Read a high Kd as lower affinity.
